Measurements taken from PMC5357137, “Target DNA bending by the Mu transpososome promotes careful transposition and prevents its reversal” (eLife, 2017).

Target: the molecule itself
Assay: SEC; CDCs formed from a 2:1 mixture of MuA protein and Mu end DNA at 30°C for ≥1 hr; 25 mM HEPES pH 7.4, 200 mM NaCl, 5% glycerol, 0.6 mM Zwittergent 3-12, 0.5 mM EDTA, no Mg2+; Superdex 200 Increase 10/300; tetramer peak collected

B1: MuA transposase lacking domain Iα (residues 1–76) (enzyme)
chain: not shown
notes: MuA transposase of bacteriophage Mu; all constructs lacked domain Iα (residues 1-76); domain IIIβ (the C-terminal ~60 residues) is included; In the assay it stood with Mu end DNA fragments as the cleaved-donor complex (CDC); The crystal structure PDB 4FCY holds a shorter construct without domain IIIβ; also called MuA protein; WT
- stoichiometry N: 4
